Experimental data published in publication PMC11920956.

B1: L1, peptide model of the Core CFeoB region of FeoB (residues 477-496) (Escherichia coli K12) (peptide)
chain: IMRGEATPFVMELPVYHVPH
B2: L2, peptide model of the ExxE motif of the NFeoB domain of FeoB (residues 38-43) (Escherichia coli K12) (peptide)
chain: VERKEG

Legend:
Tyr16 (position 16, …-) = test: potentiometry; details: 298 K; 0.1 M NaClO4; none (4 mM HClO4, 0.5 mM peptide); free peptide, no metal
[1] = molecular target: Lys4 (position 4, --VERKEG---); test: potentiometry; details: 298 K, 0.1 M NaClO4

Row | Protein | pKa (Tyr16 (position 16, …-)) | pKa ([1]; none (4 mM HClO4, 0.5 mM peptide), free peptide, no metal) | pKa ([1]; none (4 mM HClO4, 0.5 mM peptide, Mohr's salt as Fe(II) source), Fe(II) present, Fe(II):L = 1:1.1, step [FeLH-3]2- to [FeLH-4]3- of the 1:1 Fe(II):L2 complex)
1 | B1 | 9.67 | – | –
2 | B2 | – | 9.92 | 9.87
